Data from patent publication US8008542B2, “Compositions, cells, and plants that include BKI1, a negative regulator of BRI1-mediated BR signaling” (The Salk Institute for Biological Studies, priority 2007, dated 2011).

Target: T1, interaction between the kinase domains of BRI1 and BAK1 (Arabidopsis thaliana, UniProt O22476)
T1 construct: His (C); made in house; host or cells: BRI1-KD-HIS: TNT T7 coupled reticulocyte lysate (Promega)
T1 sequence (O22476 883-1158 limits assumed): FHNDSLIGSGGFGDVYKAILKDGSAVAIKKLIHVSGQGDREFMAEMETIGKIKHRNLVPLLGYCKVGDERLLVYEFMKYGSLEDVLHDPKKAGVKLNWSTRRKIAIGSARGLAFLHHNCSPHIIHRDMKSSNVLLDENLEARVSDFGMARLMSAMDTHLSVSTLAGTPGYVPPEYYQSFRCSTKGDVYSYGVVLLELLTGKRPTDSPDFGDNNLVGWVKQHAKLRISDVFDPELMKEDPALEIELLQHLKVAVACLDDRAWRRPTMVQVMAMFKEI
Assay: GST pull-down of 35S-BRI1-KD-HIS by GST-BAK1-KD in vitro
Type: binding
Conditions: 10 μM of MBP-BKI1, five replicates, p=0.000013
Description: Seedlings were grown on MS medium containing 1 μM of BRZ220. The time of BL treatment is indicated. Top panels: BKI1-YFP; Lower panels: myriBKI1-YFP. […] Immunoblots with anti-GFP show levels of myriBKI1-YFP and BKI1-YFP. Bottom band: loading control. […] The total ^35S-Met labeled BRI1-KD-HIS co-precipitated by GST-BAK1-KD was defined as “1”. Five replicates were conducted. Error bars indicate standard error. 1, GST-BAK1-KD±35S-BRI1-KD-HIS; 2, GST-BAK1-KD+35S-BRI1-KD-HIS+10 μM of MBP; 3, GST-BAK1-KD+35S-BRI1-KD-HIS+10 μM of MBP-BKI1. […] Without BL, BRI1 kinase is kept in a basal state by both its own carboxyl terminal domain and by an interaction with BKI1. Brassinosteroid binding to the extracellular domain of BRI1 induces a conformational change of the kinase domain, leading to the phosphorylation of the C-terminal domain of BRI1 and BKI1, the dissociation of BKI1 from the plasma membrane, and the release of autoinhibition of BRI1. These events lead to the full activation of BRI1 and its association with BAK1 or other substrates. Plasma membrane-dissociated BKI1 may also regulate other unknown components in the brassinosteroid signaling cascade. BSU1 is a nuclear serine/threonine phosphatase involved in the dephosphorylation of BES1 (27). […]

B1: MBP-BKI1: BKI1-maltose binding protein fusion (N-terminal MBP) (protein)
chain: METNLQQVKNSSQTFSEKQNPKQEASPSPISSTCSSPSHDFSFTISLQPLSSSSKHISPTLRSPSKTTSSYQQTDPFAVDLSPADEIFFHGHLLPLHLLSHLPVSPRTSTGSYNDGFTLPVKDILPDQPTNNNNNTENAITNISTEAKDDNTEDKAEGEIRVKTKPIKSFSLFGLSKWRKGFESNEREQEQQQQKIKKPMSLDLSHAVKKYIRMLFQKRGNGTQFWNRRQTSSYSFSSSLMGPNGNSKTMINGSYNKRDLIRGRRGELFSAPASMRTSPTNSGHLRVSTAGLSSSSGSTSSSSSDSTMEELQAAIQAAIAHCKNSSAVDRDDKVKDS
modifications: left off: large carriers
inhibition of the interaction between the kinase domains of BRI1 and BAK1: approximately 62%
